Measured values taken from doi:10.1101/2023.08.24.554616.

Biological target: MDM2 SWIB domain, Danio rerio (Danio rerio)
Experiment: fluorescence polarisation

fold reduced affinity against p53TAD (D.rerio)^17-32 [fold]	Kd [nM]	fold higher affinity than p53TAD (D.rerio)^15-27 [fold]	Substance
7.7			p53TAD_(D.rerio)^17-32 triple Ala mutant (AAAQP) (peptide)
	580		alternative p53TAD_(D.rerio)^17-32 (P79734), ending with IIQPP (peptide)
	180		p53TAD_(D.rerio)^12-55 (domain or fragment)
	49	> 70	p53TAD_(D.rerio)^10-75 (domain or fragment)
